In US20150315279A1 (CELLERANT THERAPEUTICS, published 2015):
No end group written: not given here.

Assays:
[1] = target: T1, ACPep-1 conjugated to KLH (human, also: conjugated to KLH, site and chemistry not given here); assay: ELISA, antigen coated at 2 ug/ml, antibody at 20 ug/ml
T1 construct: Peptide-carrier conjugate; also called ACPep-1-KLH; ACPep-1 conjugated KLH; not shown: Keyhole limpet hemocyanin (KLH) carrier
T1 peptide: VKQKVPAPRYTVELAC
Experimental: (§1) An ELISA was performed to further determine the specificity of monoclonal antibodies 4G9, 12F1, and 42E1. Wells of 96-well plate were coated with the secreted form of IL1RAP, ECD form of IL1RAP, ACPep-1 conjugated to KLH, or unconjugated KLH at 2 ug/ml overnight at 2-8° C. The coated wells were washed with PBS with 0.05% Tween-20, and then blocked with 1% BSA. Purified test antibodies 4G9, 12F1 and 42E1 were diluted to 20 ug/ml, added to wells coated with various proteins, and incubated at RT for 1 hr. Antibody 12G6, which binds to both the ECD and the secreted form of IL1RAP, was added as a control. Mouse IgG1 was also added as an isotype control. After incubation and PBS washes, donkey anti-mouse-HRP polyclonal antibodies were added. Color was developed with TMB substrate after incubation and PBS washes. The reaction was quenched with acid and the plate was read at 450 nm.

[2] = target: T2, secreted form of IL1RAP (recombinant) (human, UniProt Q9NPH3 21-350); assay: ELISA, antigen coated at 2 ug/ml
T2 construct: also called recombinant form of the secreted IL1RAP; soluble IL1RAP
T2 sequence: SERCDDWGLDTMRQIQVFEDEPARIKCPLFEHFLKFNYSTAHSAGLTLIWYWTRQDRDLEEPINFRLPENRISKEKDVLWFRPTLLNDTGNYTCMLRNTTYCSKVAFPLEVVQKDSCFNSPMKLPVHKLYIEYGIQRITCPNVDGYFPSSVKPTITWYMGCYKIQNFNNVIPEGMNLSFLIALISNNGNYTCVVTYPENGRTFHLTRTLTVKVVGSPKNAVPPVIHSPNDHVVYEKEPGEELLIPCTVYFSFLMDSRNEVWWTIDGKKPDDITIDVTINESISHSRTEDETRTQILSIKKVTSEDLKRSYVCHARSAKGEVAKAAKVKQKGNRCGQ
Experimental: as §1

[3] = target: T3, 12-mer peptide VPAPRYTVELAC (human); assay: ELISA, peptide adsorbed on the plate
T3 construct: also called unconjugated peptide
T3 peptide: VPAPRYTVELAC
Experimental: Peptide was conjugated to Keyhole Limpet Hemocyanin (KLH) using methods known in the art. Unconjugated peptide, KLH-peptide, and KLH were then adsorbed onto different wells of a MAXIBIND 96-well ELISA plate, which was then blocked with 1% BSA. Anti-IL1RAP antibody 1F5 was then added to the wells followed by an incubation and a wash. After the wash, donkey-anti-mouse-HRP was added to the wells at a 1:50,000 dilution followed by an incubation and a wash. Color was developed with TMB substrate. The reaction was quenched with acid and the plate was read at 450 nm.

[4] = target: T4, soluble (secreted) form of IL1RAP in normal human serum (human, UniProt Q9NPH3 21-350); assay: sandwich ELISA with normal human serum
T4 construct: Natural protein captured from human serum; also called IL1RAP from NHS; natural secreted form of IL1RAP in human serum
T4 sequence: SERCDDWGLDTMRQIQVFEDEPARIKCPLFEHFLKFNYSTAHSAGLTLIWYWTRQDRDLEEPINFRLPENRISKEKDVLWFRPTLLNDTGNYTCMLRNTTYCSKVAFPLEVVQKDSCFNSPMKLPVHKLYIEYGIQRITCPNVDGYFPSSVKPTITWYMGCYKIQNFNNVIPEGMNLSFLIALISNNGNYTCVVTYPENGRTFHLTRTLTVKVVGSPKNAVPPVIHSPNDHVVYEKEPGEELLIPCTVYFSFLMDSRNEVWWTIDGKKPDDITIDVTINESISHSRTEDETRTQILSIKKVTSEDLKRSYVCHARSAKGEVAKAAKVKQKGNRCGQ

[5] = target: T5, extracellular domain (ECD) form of IL1RAP (human, UniProt Q9NPH3 21-367); assay: ELISA, IL1RAP captured by goat anti-human IL1RAP polyclonal, 1F5 at 1 µg/ml
T5 construct: also called ECD of IL1RAP; ECD IL1RAP
T5 sequence: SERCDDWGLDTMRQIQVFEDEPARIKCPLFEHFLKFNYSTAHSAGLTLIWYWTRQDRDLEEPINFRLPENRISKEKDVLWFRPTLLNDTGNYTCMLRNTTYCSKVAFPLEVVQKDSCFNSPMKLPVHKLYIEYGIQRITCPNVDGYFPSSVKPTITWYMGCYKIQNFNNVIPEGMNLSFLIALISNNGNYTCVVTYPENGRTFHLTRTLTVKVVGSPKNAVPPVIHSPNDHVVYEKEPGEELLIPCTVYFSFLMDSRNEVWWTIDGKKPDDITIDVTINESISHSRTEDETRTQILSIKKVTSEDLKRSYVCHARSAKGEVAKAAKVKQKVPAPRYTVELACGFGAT
Experimental: Wells of a 96-well ELISA plate were coated with goat-anti-human IL1RAP polyclonal at 0.5 μg/ml and incubated overnight at 2-8° C. The coated wells were washed with PBS with 0.05% Tween-20, then blocked with 1% BSA. IL1RAP was added into the wells at 0.5, 1, or 2 μg/ml followed by an incubation and a 3×PBS wash. After the 3×PBS wash, antibody 1F5 was added to the wells at 1 μg/ml followed by an incubation and a 3×PBS wash. After the 3×PBS wash, donkey-anti-mouse-HRP was added to the wells at a 1:50,000 dilution followed by an incubation and a 3×PBS wash. Color was developed with TMB substrate. The reaction was quenched with acid and the plate was read at 450 nm.

peptide AC Pep-1 = target: T6, peptide AC Pep-1 (human); assay: ELISA of hybridoma supernatant on peptide AC Pep-1
T6 peptide: VKQKVPAPRYTVELAC

[6] = target: T7, human interleukin 1 receptor accessory protein, membrane-bound (receptor) form on cells (human, UniProt Q9NPH3 21-570); assay: flow cytometry on BMMC or PBMC of AML patients, 1F5 at 2 µg/mL
T7 construct: also called IL1RAP; receptor IL1RAP
T7 sequence: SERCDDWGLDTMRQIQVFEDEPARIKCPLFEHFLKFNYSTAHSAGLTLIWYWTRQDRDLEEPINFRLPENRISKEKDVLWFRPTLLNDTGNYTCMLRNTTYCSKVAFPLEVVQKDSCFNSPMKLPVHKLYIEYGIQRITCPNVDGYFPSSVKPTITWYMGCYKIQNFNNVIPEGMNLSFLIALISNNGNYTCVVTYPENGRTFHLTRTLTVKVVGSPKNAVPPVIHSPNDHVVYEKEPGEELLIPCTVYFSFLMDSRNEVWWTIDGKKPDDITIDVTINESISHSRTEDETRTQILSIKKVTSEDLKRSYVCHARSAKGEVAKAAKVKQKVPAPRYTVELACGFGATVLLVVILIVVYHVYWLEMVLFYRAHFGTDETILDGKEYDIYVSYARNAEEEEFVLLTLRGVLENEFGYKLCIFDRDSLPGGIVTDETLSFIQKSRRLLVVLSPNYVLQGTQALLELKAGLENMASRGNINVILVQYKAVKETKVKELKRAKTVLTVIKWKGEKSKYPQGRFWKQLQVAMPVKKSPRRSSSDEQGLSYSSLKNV
Experimental: Bone Marrow-Derived […] (BMMC) or Peripheral Blood Mononuclear Cells (PBMC) were isolated by Ficoll separation (GE Healthcare) from bone marrow aspirate or whole blood respectively of AML patients. Cells were resuspended in staining solution (HBSS, 1% BSA, 1 mM EDTA) to 2×10⁶ cells/mL and blocked with mouse and rat IgG prior to staining. Unconjugated IgG2a or 1F5 antibodies were added to each tube to a final concentration of 2 μg/mL. 50 μL of the cell solution was added to each tube and incubated on ice for 30 min (each stage of incubation was 30 min). Cells were washed with staining solution and resuspended in 100 μL of staining solution with a […] concentration of anti-mouse-PE secondary. Cells were washed with staining solution and resuspended in 100 μL of staining solution with 5 μL each of CD34-FITC, CD45-APC and CD38-APC (BD). Cells were washed with staining solution and resuspended in 200 μL. Cells were immediately applied to flow cytometry for analysis.

[7] = target: T2, secreted form of IL1RAP (recombinant); assay: ELISA, antigen captured by goat anti-human IL1RAP polyclonal, serially diluted antibody
Text: (§2) The binding specificity of purified 4B6 was confirmed by ELISA assays described below. Wells of 96-well plate were coated with goat-anti-human IL1RAP polyclonal antibodies to capture various forms of IL1RAP. Forms of IL1RAP captured were (a) ECD form of IL1RAP, (b) the secreted form IL1RAP, and (c) human serum containing the secreted form of IL1RAP. Each captured form was then reacted with serially diluted tested antibody 4B6, control antibody 12G6, or a mouse IgG1 isotype control antibody. After incubation and washing, wells were reacted with secondary donkey-anti-mouse-HRP polyclonal antibodies. Color was developed with TMB substrate after incubation and PBS washes.

[8] = target: T4, soluble (secreted) form of IL1RAP in …; assay: ELISA, antigen captured from human serum by goat anti-human IL1RAP polyclonal, serially diluted antibody
Text: as §2

B1: monoclonal antibody 4G9 (antibody, V domains shown)
VH: QVQLQQSGTELVRPGASVKLSCKASGYTFTDYEMHWVKQTPVHGLEWIGAIDPGTGGIAYNQKFKGKATLTADKSSSTAYMELRSLTSEDSAVYYCTLYDYDLAYWGQGTLVTVSA
VL: DVLMTQTPLSLPVSLGDQASISCRSSQSIVHSNGNTYLEWFLQKPGQSPKLLIYTVSNRFSGVPDRFSGSGSGTDFTLKISRVEAEDLGVYYCFQGSHVPPTFGGGTKLEIK
Q: Does B1 bind [1]?
A: Result: binds

Q: Does B1 bind [2]?
A: Result: no binding (tested: 20 ug/ml)

B2: anti-receptor IL1RAP antibody clone 1F5 (antibody, V domains shown)
VH: EVKLVESGGGLVKPGASLKLSCAASGFTFSNYGMSWVRQTSDKRLEWVASISSGGGSTYYPDNVKGRFTISRENAKNTLYLQMSSLKSEDTALYYCARVLPGRWAMDYWGQGSSVTVSS
VL: DVVMTQTPLSLPVSLGDQASISCRSSQSLVHINGNTYLHWYLQKPGQSPKLLIYKVSNRFSGVPDRFSGSGSGTDFTLKISRVEAEDLGVYFCSQSTHVPWTFGGGTKLEIK
notes: Mouse monoclonal antibody from a hybridoma (A/J mice immunised with AC Pep-1-KLH); IgG2a was used as its control in flow cytometry; Hybridoma supernatants were used in some assays; also called anti-IL1RAP antibody 1F5; 1F5 supernatants
Q: Does B2 bind [3]?
A: Result: binds

Q: Does B2 bind [4]?
A: Result: no binding

Q: Does B2 bind [5]?
A: Result: binds

Q: Does B2 bind (peptide AC Pep-1)?
A: Result: binds

Q: Does B2 bind [6]?
A: Result: binds

B3: monoclonal antibody 4B6 (antibody, V domains shown)
VH: EVKLVESGGGLVKPGGSLKLSCAASGFTFRTYAMSWVRQTPEKRLEWVASISSRGRIYYPDSVKGRFTISRDNARNILYLQMSSLRSEDTAMYYCARDGDYGSSYDYWGQGTTLTVSS
VL: DIQMTQSPSSLSASLGERVSLTCRASQDIGSSLNWLQQEPDGTIKRLIYATSSLDSGVPKRFSGSRSGSDYSLTISSLESEDFVDYYCLQYASSPWTFGGGTKLEIK
Q: Does B3 bind [7]?
A: Result: no binding

Q: Does B3 bind [8]?
A: Result: no binding
